Laboratory results taken from patent US20240317859A1 (published 2024).
Positions count from the first letter of the chain named. Like-named read-outs stand apart in the source and are kept apart here.

T1: FcγRIIB/C (CD32b/c) (FcγRIIB) (R&D Systems) (UniProt P31994 46-217)
T1 chain: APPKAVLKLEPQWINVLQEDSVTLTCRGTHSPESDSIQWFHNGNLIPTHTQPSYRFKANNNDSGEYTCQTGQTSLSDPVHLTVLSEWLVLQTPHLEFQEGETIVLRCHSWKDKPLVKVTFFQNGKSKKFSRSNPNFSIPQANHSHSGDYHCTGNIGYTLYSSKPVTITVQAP

B1: X3-KL HM268-K8 (antibody)
chain 1: QVQLVQSGPEVKKPGASVKVVCKTSGYTFTSYYIQWLKQRPGQGLEWIGWIYFGDASTKYNEKFKGRVTMTADKSTSTAYMELRSLRSDDTAVYYCASYYGSYFDYWGQGTTVTVSSASTKGPSVFPLAPSSKSTSGGTAALGCLVKDYFPEPVTVSWNSGALTSGVHTFPAVLQSSGLYSLSSVVTVPSSSLGTQTYICNVNHKPSNTKVDKKVEPKSCDKTHTCPPCPAPELLGGPDVFLFPPKPKDTLMISRTPEVTCVVVDVSDEDPEVKFNWYVDGVEVHNAKTKPREEQYNSTYRVVSVLTVLHQDWLNGKEYKCAVSNKAYPAPIEKTISKAKGQPREPQVYTLPPSRDELTKNQVSLTCLVKGFYPSDIAVEWESNGQPENNYKTTPPVLDSDGSFFLYSKLTVDKSRWQQGNVFSCSVMHEALHNHYTQKSLSLSPGK
chain 2: DIQMTQSPSSLSASVGDRVTITCRASQDISNYLNWYQQKPDGTVKLLIYSTSRLHSGVPSRFSGSGSGTDYTLTISSLQPEDFATYYCQQGSTLPFTFGQGTKLEIKRTVAAPSVFIFPPSDEQLKSGTASVVCLLNNFYPREAKVQWKVDNALQSGNSQESVTEQDSKDSTYSLSSTLTLSKADYEKHKVYACEVTHQGLSSPVTKSFNRGEC
B2: X2-K-DF HM242-C3 (antibody)
chain 1: QVQLVQSGPEVKKPGASVKVVCKASGYTFTSYYIQWVKQRPGQGLEWIGWIYPGDGTTKYNEKFKGRVTMTIDKSTRTAYMELRSLRSDDTAVYYCASYYGSYFDYWGQGTLVTVSSASTKGPSVFPLAPSSKSTSGGTAALGCLVKDYFPEPVTVSWNSGALTSGVHTFPAVLQSSGLYSLSSVVTVPSSSLGTQTYICNVNHKPSNTKVDKKVEPKSCDKTHTCPPCPAPELLDGPSVFLFPPKPKDTLMISRTPEVTCVVVDVSDEDPEVKFNWYVDGVEVHNAKTKPREEQYNSTYRVVSVLTVLHQDWLNGKEYKCAVSNKALPAPIEKTISKAKGQPREPQVYTLPPSRDELTKNQVSLTCLVKGFYPSDIAVEWESNGQPENNYKTTPPVLDSDGSFFLYSKLTVDKSRWQQGNVFSCSVMHEALHNHYTQKSLSLSPGK
chain 2: not shown
B3: X4-KS HM268-K8 (antibody)
chain 1: B1 chain 1 with S267G, I332E
chain 2: B1 chain 2
B4: X3-KS-DF HM242-C3 (antibody)
chain 1: B2 chain 1 with D236G, S239D, S267G
chain 2: not shown
B5: X3-KI HM268-K8 (antibody)
chain 1: B1 chain 1 with Y328L, I332E
chain 2: B1 chain 2
B6: X2-K HM268-K8 (antibody)
chain 1: B1 chain 1 with G236D, D239S, Y328L
chain 2: B1 chain 2
B7: X3-KS-DF HM297-H5 (antibody)
chain 1: QVQLVQSGPEVKKPGASVKIPCKASGYTFTDYNVDWVRQVPGQGLEWMGDIDPNNGGTIYNQKFKDRVTMTVDKSTRTAYMELRSLRSDDTAVYYCARWRGAMDYWGQGTLVTVSSASTKGPSVFPLAPSSKSTSGGTAALGCLVKDYFPEPVTVSWNSGALTSGVHTFPAVLQSSGLYSLSSVVTVPSSSLGTQTYICNVNHKPSNTKVDKKVEPKSCDKTHTCPPCPAPELLGGPDVFLFPPKPKDTLMISRTPEVTCVVVDVGDEDPEVKFNWYVDGVEVHNAKTKPREEQYNSTYRVVSVLTVLHQDWLNGKEYKCAVSNKALPAPIEKTISKAKGQPREPQVYTLPPSRDELTKNQVSLTCLVKGFYPSDIAVEWESNGQPENNYKTTPPVLDSDGSFFLYSKLTVDKSRWQQGNVFSCSVMHEALHNHYTQKSLSLSPGK
chain 2: B1 chain 2 with S30D, N34K, S50D, Q79K, P80Q, S92Y, F96W
B8: X3-K HM268-K8 (antibody)
chain 1: B1 chain 1 with Y328L
chain 2: B1 chain 2
B9: X3-KSL HM268-K8 (antibody)
chain 1: B1 chain 1 with S267G
chain 2: B1 chain 2
B10: X3-KS-DF HM242-D3 (antibody)
chain 1: B2 chain 1 with K38R, R40V, I48M, K74T, R77S, D236G, S239D, S267G
chain 2: not shown
B11: X3-KS-DF HM268-K8 (antibody)
chain 1: B1 chain 1 with S267G, Y328L
chain 2: B1 chain 2
B12: X4-K HM268-K8 (antibody)
chain 1: B1 chain 1 with I332E
chain 2: B1 chain 2
B13: X3-KE HM268-K8 (antibody)
chain 1: B1 chain 1 with E293A, Y328L
chain 2: B1 chain 2
B14: X3-KSI HM268-K8 (antibody)
chain 1: B1 chain 1 with S267G, Y328L, I332E
chain 2: B1 chain 2

How the values were obtained:
Experiment in all cases: SPR
[1] = target: Fc gamma RIIIA/CD16a, CF (FcγRIIIA(V158)) (R&D Systems)
Fc gamma RIIIA/CD16a, CF (FcγRIIIA(V158)) (R&D Systems), sequence (chain, as listed by the source): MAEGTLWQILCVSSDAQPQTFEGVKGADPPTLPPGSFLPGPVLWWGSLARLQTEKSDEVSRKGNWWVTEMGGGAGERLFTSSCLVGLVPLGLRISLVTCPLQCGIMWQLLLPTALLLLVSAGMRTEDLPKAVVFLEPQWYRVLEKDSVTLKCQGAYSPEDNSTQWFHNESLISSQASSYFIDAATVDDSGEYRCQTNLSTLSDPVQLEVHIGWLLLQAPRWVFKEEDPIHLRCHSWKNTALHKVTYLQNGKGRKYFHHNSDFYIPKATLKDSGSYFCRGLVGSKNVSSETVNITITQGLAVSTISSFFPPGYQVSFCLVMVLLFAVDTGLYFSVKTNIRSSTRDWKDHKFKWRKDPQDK

[2] = target: T1, FcγRIIB/C (CD32b/c) (FcγRIIB) (R&D …)
[3] = target: T1, FcγRIIB/C (CD32b/c) (FcγRIIB) (R&D …)

Binder	Kd [1] [nM]	Kd [2] [nM]	Kd [3] [nM]
B1	1250	736	
B2		1020	
B3	881	2550	
B4		1170	
B5	162	689	
B6	7560		1650
B7		1220	
B8	370	1380	
B9	3460	1240	
B10		2540	
B11		2200	
B12	236		1050
B13	305	1110	
B14	265	1640	
